Reference: patent US20150224205A1
“And” between values parts separate entries of the source, which are not always exact repeats. Identical values can stand only once.

biological target: T1, C1-esterase; experiment: cell-based or functional assay
T1 sequence (P09871 16-688, species assumed, looked up): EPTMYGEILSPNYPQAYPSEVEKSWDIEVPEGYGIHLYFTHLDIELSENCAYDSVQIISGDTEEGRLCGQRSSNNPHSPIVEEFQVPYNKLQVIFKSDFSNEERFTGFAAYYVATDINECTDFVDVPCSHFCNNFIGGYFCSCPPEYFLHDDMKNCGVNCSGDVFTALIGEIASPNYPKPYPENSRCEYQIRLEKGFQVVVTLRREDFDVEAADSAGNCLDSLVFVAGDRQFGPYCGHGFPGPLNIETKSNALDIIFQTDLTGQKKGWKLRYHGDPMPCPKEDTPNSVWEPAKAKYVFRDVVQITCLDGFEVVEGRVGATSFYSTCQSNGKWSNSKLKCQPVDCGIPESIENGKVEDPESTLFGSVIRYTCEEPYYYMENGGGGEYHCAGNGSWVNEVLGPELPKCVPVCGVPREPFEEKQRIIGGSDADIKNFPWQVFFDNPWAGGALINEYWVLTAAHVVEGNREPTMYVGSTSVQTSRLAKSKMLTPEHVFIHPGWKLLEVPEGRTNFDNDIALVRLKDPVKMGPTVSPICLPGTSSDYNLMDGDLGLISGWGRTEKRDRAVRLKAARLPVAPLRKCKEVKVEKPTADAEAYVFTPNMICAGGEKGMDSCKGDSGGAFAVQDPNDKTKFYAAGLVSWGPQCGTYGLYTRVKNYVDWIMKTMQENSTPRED

Chain of ALD-PEG(40 k)-C1 INH, mono PEGylated (PEG#/C1 INH = 1) (P05155 23-500 limits assumed): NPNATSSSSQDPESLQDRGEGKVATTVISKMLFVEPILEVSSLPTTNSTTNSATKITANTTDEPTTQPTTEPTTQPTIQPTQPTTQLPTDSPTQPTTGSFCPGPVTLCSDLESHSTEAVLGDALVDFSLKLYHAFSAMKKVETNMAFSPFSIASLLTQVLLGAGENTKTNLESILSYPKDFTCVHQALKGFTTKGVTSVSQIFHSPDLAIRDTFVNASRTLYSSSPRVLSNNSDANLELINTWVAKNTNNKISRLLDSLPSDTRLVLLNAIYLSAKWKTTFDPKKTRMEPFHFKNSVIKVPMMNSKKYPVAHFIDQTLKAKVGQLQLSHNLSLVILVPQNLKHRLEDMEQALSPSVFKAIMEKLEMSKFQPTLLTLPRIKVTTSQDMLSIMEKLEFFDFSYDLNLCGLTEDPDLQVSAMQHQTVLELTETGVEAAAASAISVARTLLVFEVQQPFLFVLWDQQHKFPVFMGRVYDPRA
Chain of 5k mPEG-BCN-C1 INH (P05155 23-500 limits assumed): as above
Chain of ALD-PEG2(40 k)-C1 INH, mono PEGylated (PEG#/C1 INH = 1) (P05155 23-500 limits assumed): as above
Chain of ALD-PEG2(40 k)-C1 INH, di PEGylated (PEG#/C1 INH = 2) (P05155 23-500 limits assumed): as above
Chain of ALD-PEG(40 k)-C1 INH, di PEGylated (PEG#/C1 INH = 2) (P05155 23-500 limits assumed): as above

% C1 INH Activity | C1 in activity | Specific Activity (U/mg) | Substance
100% | 3.7 U/mg | 7.3 U/mg | 5k mPEG-BCN-C1 INH (from UniProt P05155 23-500)
43% | – | 3.9 U/mg | ALD-PEG2(40 k)-C1 INH, di PEGylated (PEG#/C1 INH = 2) (from UniProt P05155 23-500)
81% | – | 7.4 U/mg | ALD-PEG2(40 k)-C1 INH, mono PEGylated (PEG#/C1 INH = 1) (from UniProt P05155 23-500)
75% | – | 6.8 U/mg | ALD-PEG(40 k)-C1 INH, di PEGylated (PEG#/C1 INH = 2) (from UniProt P05155 23-500)
67% | – | 6.1 U/mg and 6.9 U/mg | ALD-PEG(40 k)-C1 INH, mono PEGylated (PEG#/C1 INH = 1) (from UniProt P05155 23-500)
